According to the NTF2 design screens of Basanta et al. (2020):

experiment: protease stability score; higher = more stable; yeast display proteolysis, trypsin and chymotrypsin;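 further: log10 excess protease needed over predicted unfolded state with 0 meaning unfolded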

Compared with “DEDLFRRLSELMHAVTNGDEEELVKQADKDARIQYGDKVFHGMDEAARELVRQQKEIRQSWEIKSWDHQGDKVRVTIKNSQDHDGRPHSNRIDVEVKQRNGKVTTARFQTHP”, “DEDLIELAKELMHALQEGDEKRLQDLIDPNASAQIGDHRVHGMDEVLSTLVEHQHNQRVRIDRMEADVHNGTARVRIDQQFEHNGNPDKKVLVYEMTANNGKLKHYKLDEDK” is higher in protease stability score: 0.148 for the first, 0.268 for the second.

First: DEDLKHLFHTFQKVLEEGNREKLRRLADENVTVSYGDKRVHGMESFARQVKEERDEQRVVINIRKVDVSGDQVRVVADVEREHNGKPDRKNLVMEANAEGDKFREVKYTEHG
Second: DEDLKKRFKRMLRNLQNNNEENAHELMDPNARWRYGDKVLHGHEQLIEEWKRIHDRMRVEYKSVEVTASGDKVVVEIVFTRHKNGSPDSDNTRWKAVYNNGKLKDMMVTEDG
The protease stability score of the first is lower: 0.151 for the first, 0.637 for the second.

First: DEDLKQQFDELVEIKKNGDEDRLVEQADENVKAQVGDKDVHGMKEIAHNIRHTVERIRVEIKSMEVDAQGNRVHVENDFVENNNGKPHRKVVDMKFIFHNGTLKSYTERDDK
Second: DEDLLKQADRWVKNLTRGNFKDLQKLFPPDATVQYGDNHIHGMEKISHEWKKEQEEMRIRVDRVQNEHQGEKAVVDLHYKVTHNGKPEENVVILFIEKHNGHMIFMKIQKTG
The protease stability score of the first is lower: -0.608 for the first, 0.739 for the second.

First: DEDLLKQLHTYLRAHETGDRSRLRKLMDPNAEVRIGNHELHGREEILTQQVEEAHKITQYFEIDSVEVRPNSIKVKAHVSMNVNGQPFRTEVEYDVRIRNGRIQEITYRLPEEFLREVNR
Second: DEDLLRKIKQLLRAFEDNNEDQLRKNADPNARFVYGDKHIHGMEEAMRHQVTRYKEIRIERQIDTMSVTNGRANVQFTVVENHNGRPDTFHVQVDIKAHNGRVHTIEYEIHK
The protease stability score of the first is lower: -0.229 for the first, 0.387 for the second.

Compared with “DEDLLRRAEQFIKAELRNNPDRAKELADPNVKFNIGDKEIHGMDDFRRYLHKKVKNMKWRAKVTHMKVQGNHAKLHVKVTLDINGRPFDVTRDILIVFHNGKIRDVNVRVDPEDKKRQKE”, “DEDLMERLKTILDAQSNGNPDELRRMFDPNAKIDIGDKEYHGMENFASNQHKRVKHIEQKYQFKSISAEGDKLDVRLRAQQVVNGTPRKYEYNLTARMSNGKVKSMEVQIPEEVLKRLEK” is lower in protease stability score: 1.39 for the first, -0.219 for the second.

Compared with “DEDLMRKFVERVKTGDPKDLVDQLDENAHQVVGETRVHGRSQFEKLAKKLEEQVDHIKVRSVKQENGRVDMDVVVNVNGQNNRYVLRVDVHNGKIKHMEVEFTDEEDEKAYRKALG”, “DEDLMTQIVKRYIDAWREGDRDELMKLADENVHIQVGDQTYHGQEQWRELVKKHKDNADHMDVKSWNIRGEKVHVHYWARFNGVEIEDTVEIQYENGRIIDIQFDPDQQRKEDK” is higher in protease stability score: 0.095 for the first, 0.676 for the second.

First: DEDLNDMAVRMAEILNEGNEDEYNKQIDPHARFVIGDKEYSGHEHFKKEIQRQNKEMRVTVNLHRWDATNGEMHLVIHYSWNVNGRPTTIHVHFRITARGDKFKQIDVHMDPDELRRVDS
Second: DEDLQEFAERLLQVNRTGDEDQFRRNVDPNAKMVVGDKEYHGRDELARFFRHLREHARFELNVKSVSVEGDTVEIHFEARVDINGKPLTYEASMSMRVEGDRVKRITFRMDPDQRRKAHS
The protease stability score of the first is lower: 0.765 for the first, 1.11 for the second.

First: DEDLQKQAERFLHAVNTGNEEQIHRLVDKDARMQYGDRRVHGRERIATWYRQMKEEIRQDIEVRTVRVRNGRVEVDARVERHVNGRPIDNKFHMSIQIENGKVKSITAHLDPNVLQEIKR
Second: DEDLRRQAETMVDNINTNNERELEKLFDPNVHVVVGDRRINGTEHLRDYWRRIRDHMRLEVNLRRISVHNGKISAHVDVVREHNGKPDEDTFRMSAVVRNGKFHKMRVEKDG
The protease stability score of the first is lower: 1.17 for the first, 1.37 for the second.

First: DEDLSRNFHQFIEALKQNDTDRMKELIDPNARMRYGDKQLHGRENILNYWKKLNDQARVDLDLKSVRNDENHIRYNYKMRVHVNGRPVEDTATAEIRATNGRIVDIYIDFDPEKLRQIES
Second: DEDLTKRFRQLIKAQETGDPDKIKNQVDKDVHAHVGDKTVSGREKLATQIHRDVQHSHFKVHVDNVRNHGNKVEVDARMVMNINGRPVTFTVNMDFTFHDGTIHRIKMSISEEDKKKTDS
The protease stability score of the first is higher: 2.34 for the first, 0.793 for the second.

Going from “DEDLVERVQDLLEAERENDEDTVSKMVDPNVKFSYGNRELHGREQWTKHVAEKQKQMRIQIDIDSYSVQGNHATFTAKITVHINGKPMSDTVTFQIVFSNGKVEEVRMRIDPRFQREVES” to “DEDMSRKAKKFWKAETDGNPQKLKTLIDPNARAHVGDQDLHGRRKIVHWLKHFRDTMRQHWTRYSFDAHGNKVDNRFVVVLQTNGKPERRRNKLTLVFKNGRLVSMRDETKG”, the protease stability score rises from 0.016 to 0.128.

Compared with “DEDMYEQYESILHNERTGNEDEWVENIDPNARIRVGDKEVHGMEDNAREKRRHQEEQRVHFDIKRYSIHNGELDVTAKMRRDVNGQPAQDDVKVRIVVENGRIKEQDQDFDEDDDRRQKK”, “DEDNAERVHTALDILERGNPEEVKKMFRDDVRATIGDTVIHGMTNFAHYMQRLMDHARVNITIRSWSVKNGRVEIDAEIHANHNGQPYHDRFKIKAEVTNGRFKYLQYDIDPDFLRDMTK” is higher in protease stability score: -0.037 for the first, 1.25 for the second.

Going from “DEDNEKELQREIVRVLKHNDWERFTQLIDEDVRLEYGDQRYHGREQVSKHFTDLAQEVDSVEVTSVKAHNGKINITAILNHNGTNHRYNIRFEFRNGRLKVVRYDHT” to “DEDNHRKAKKLIDAENTGDPTQVRKLADPNVHVEYGDEHVHGRDEIANELSKKAKEIRFRVDRLSFSVHNGTFSATQRMKENDNGRPEEFRVERSMELHNGKFVSIVQKKKS”, the protease stability score falls from 1.85 to -0.071.

Going from “DEDNLRDAMEVYHQNDPDKAVKMADEDVKVVVGDRKWNGREDFEEAMRTFNQRVDHIEYKSMDVSNGQISIDVVINVDGQNARFILNIEIHNGKIKSLRYQWRNENVRQVLTEIFQ” to “DEDNMHRLKEFLDNLNQGDEERLVELADEDVKLVYGEKRYHGREELTKTLETQRDQMRVDYKVKSMSVSNGRVHADIEASNTKNGKPKRFKVRVHAEFHNGRLQVYNQQEDK”, the protease stability score falls from 0.795 to 0.42.

Compared with “DEDNQREANRAAKTGDFKRMAEKADPNVSVTVGDKEVKGREEVHKFVQRFDDQVDDLDIKSFRVEGDKVHVQATAVFNGKKIEFSFSARIHNGKLTKMTVKVRDPRQQKKLQKQWE”, “DEDNQTQTAERVVEIMRTGDEHKMRNLADENVKIQIGDKKYRGRDEASKQAKELRDRVDRLRVVRFDVHGNKVRIVMQFKYNGVTVNFKFTVEIHNGRVKSMEMRYTNPEDLKRARS” is higher in protease stability score: 0.004 for the first, 0.182 for the second.

First: DEDNTDRARKFFEALRTNDPDQVSSLLDPNARVHIGDRVINGREEVRTHIKHLTDKIRFQIQKVTVHVSNGRISAHVTFEVEVNGRPDRFNMEVVARVENGKIKVMQFKISEDQMQKLRN
Second: DEDNVKRAEHFAEALITGNPEEIQKQVDPNAKIKVGEQEVHGMESYAKEVHEENKEMHIEIRHISATAQGDRARLEMRYVINSNGRPQHVVQEYTIKLHNGRAQEIEVKDDG
The protease stability score of the first is higher: 1.39 for the first, 0.282 for the second.

First: DEDQAKEQVDNARKVINQGNFSEAVKTADPNVKAAYGEKRLEGRQVLHTYQEVFQRRVDHVHVRRVDLKGEKATIKAELTINGRTTTMRMVVEVSNGRLKNFYVKYK
Second: DEDQAKTIEELWRTNDFDTLATQADKDVHNHVGDKKIHGRTQHTQAQERIRRAVDHFDVKRVNIQGNKVDIDVVMEVNGKNVHMTVVITVHNGKIKHMSMRVRDEEVKKLFEEMEQ
The protease stability score of the first is lower: 0.145 for the first, 0.527 for the second.

First: DEDQAQKLIDKMTEAMFKNDEETIRKVGKEDVEVKNADEEYKGVDTIVDLARKYKEQGIEFHLEQVHKEGDQVKFTAVVHVADRTVKVEVKYKADNGHVERTEVEWSQEVKKAFQQH
Second: DEDQARLAIRFMEAWLEGNEDELKNQADPNAHFQVGDKHVTGMDEAAKELKTQLTEIRWDYKSVRIDTEEGRANLDMTVRMEVNGKPVEHSQKIEVERHNGQLSVIDQQFDNDTWDEVKS
The protease stability score of the first is higher: 0.97 for the first, -0.393 for the second.

First: DEDQATEVAELVKSNDWENLRRNIDPNARMHIGDRTLHGREEIAEVFRRIVEQADHQRLHHLEVEGDTIVIRMTVNINGKEVDFRMKIQFHNGKIKEVRVDFTDPKERKVFDKAAR
Second: DEDQEDLIRRLIKALDTGDPEQARKNADKDARFNYGDQEIHGMQTFVDDLEKRKRQMHVRITRIDVRVHNGQAKQSVNEVTNHNGRPQSRVQDRRIQITNGRVKKMENDDDG
The protease stability score of the first is higher: 1.28 for the first, -0.316 for the second.
